Laboratory results reported in article PMC10564622 (Free Radical Biology & Medicine, 2023).
“And” between values parts separate entries of the source, which are not always exact repeats. Equal entries are not always repeated.

Legend:
Conditions in all cases: both partners purified
AF488-labeled CUL3NTD [1] = target: T1, AF488-labeled CUL3NTD (human, UniProt Q13618 1-388, I342R | L346D, AF488 by direct acylation with AF488-Tfp (sites not given)); experiment: FRET or BRET; TR-FRET protein displacement assay: CoraFluor-1-labeled KLHL11_(BTB-BACK) + AF488-labeled CUL3NTD, unlabeled protein titrated (cmax 25 μM); assay buffer pH 7.5, 2 h, room temperature; KD from IC50 by Cheng-Prusoff
T1 construct: human CUL3, Uniprot Q13618, residues 1–388, vector pNIC-CTHF, with stabilising mutations I342R and L346D; also called AF488-CUL3NTD; source: E. coli BL21(DE3)-pRARE2, purified (nickel sepharose, TEV cleavage, SEC), labeled with AF488-Tfp; not shown: His6, C-terminal, cleaved; FLAG, C-terminal, cleaved
T1 sequence (Q13618 1-388 I342R/L346D): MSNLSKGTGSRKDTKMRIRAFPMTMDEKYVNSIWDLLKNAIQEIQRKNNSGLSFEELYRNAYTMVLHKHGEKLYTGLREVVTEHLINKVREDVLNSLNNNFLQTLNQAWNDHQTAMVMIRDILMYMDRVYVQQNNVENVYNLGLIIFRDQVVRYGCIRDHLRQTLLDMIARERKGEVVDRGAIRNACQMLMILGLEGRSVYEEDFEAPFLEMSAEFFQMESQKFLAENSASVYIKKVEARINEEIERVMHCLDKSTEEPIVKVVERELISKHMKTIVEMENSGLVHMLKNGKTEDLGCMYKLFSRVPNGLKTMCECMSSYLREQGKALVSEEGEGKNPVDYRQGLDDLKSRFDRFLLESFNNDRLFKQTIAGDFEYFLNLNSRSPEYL

AF488-labeled CUL3NTD [2] = target: T1, AF488-labeled CUL3NTD; experiment: FRET or BRET; TR-FRET protein displacement assay: CoraFluor-1-labeled KEAP1FL + AF488-labeled CUL3NTD, unlabeled protein titrated (cmax 25 μM); assay buffer pH 7.5, 2 h, room temperature; KD from IC50 by Cheng-Prusoff
[3] = target: biotinylated CUL3NTD (residues 1–389) (human, UniProt Q13618 1-389, I342R | L346D, biotin (on the avi tag)); experiment: BLI; biotinylated CUL3NTD immobilised on streptavidin tips, KEAP1_(BTB-3-box) in serial dilution; 50 mM HEPES, 300 mM NaCl, 0.5 mM TCEP, 10 mM DTT, 0.01% TWEEN-20; steady-state and kinetic fits, 1:1 model; apparent
biotinylated CUL3NTD (residues 1–389), sequence (Q13618 1-389 I342R/L346D): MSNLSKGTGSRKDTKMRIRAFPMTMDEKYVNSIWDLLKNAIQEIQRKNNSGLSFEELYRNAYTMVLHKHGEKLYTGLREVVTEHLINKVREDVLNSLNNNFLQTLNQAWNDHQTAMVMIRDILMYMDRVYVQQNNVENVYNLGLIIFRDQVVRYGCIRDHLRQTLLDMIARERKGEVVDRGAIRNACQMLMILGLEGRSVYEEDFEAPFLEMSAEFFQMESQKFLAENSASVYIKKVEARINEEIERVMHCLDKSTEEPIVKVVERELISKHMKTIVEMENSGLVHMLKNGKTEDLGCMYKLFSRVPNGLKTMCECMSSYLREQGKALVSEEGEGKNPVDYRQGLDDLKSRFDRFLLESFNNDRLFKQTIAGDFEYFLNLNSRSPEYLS

[4] = target: T2, CUL3NTD (CUL3 N-terminal domain, residues 1–388, I342R L346D) (human, UniProt Q13618 1-388, I342R | L346D); experiment: crystal structure; KEAP1_(BTB-3-box) and CUL3NTD mixed 1:1, purified by SEC; sitting drop at 20 °C, 20% PEG 3350, 10% ethylene glycol, 0.2 M potassium citrate tribasic; 3.45 Å, space group C2 2 2_(1)
T2 construct: human CUL3, Uniprot Q13618, residues 1–388, vector pNIC-CTHF, with stabilising mutations I342R and L346D (split-n-express); source: E. coli BL21(DE3)-pRARE2, purified (nickel sepharose, TEV cleavage, SEC); not shown: His6, C-terminal, cleaved; FLAG, C-terminal, cleaved
T2 sequence (Q13618 1-388 I342R/L346D): as the sequence (Q13618 1-388 I342R/L346D) above

B1: KEAP1_(BTB-3-box) (human KEAP1 residues 48–213) (domain or fragment, UniProt Q14145 48-213, looked up)
chain: GNRTFSYTLEDHTKQAFGIMNELRLSQQLCDVTLQVKYQDAPAAQFMAHKVVLASSSPVFKAMFTNGLREQGMEVVSIEGIHPKVMERLIEFAYTASISMGEKCVLHVMNGAVMYQIDSVVRACSDFLVQQLDPSNAIGIANFAEQIGCVELHQRAREYIYMHFGE
notes: human KEAP1 (KLHL19), Uniprot Q14145, residues 48–213 (BTB and 3-box), vector pNIC28-Bsa4; Homodimer through the BTB domain by crystallographic symmetry; Residues 51–204 modelled in the structure; also called BTB and 3-box domains of human KEAP1; source: E. coli BL21(DE3)-pRARE2, purified (nickel sepharose, TEV cleavage, SEC); not shown: His6, N-terminal, cleaved
Kd (AF488-labeled CUL3NTD [1]): 0.72 µM | Kd (AF488-labeled CUL3NTD [2]): 1.04 µM | Kd [3]: 1.7 µM and 1.4 µM | stoichiometry N [4]: 1 KEAP1 per CUL3 (printed as 2:2)
